Target: the molecule itself
Assay: SAXS; molecular weight from forward scattering I(0) against a bovine serum albumin standard; free protein at at least three concentrations in 100 mM KCl, 5 mM MgCl2, 10 mM Tris-HCl (pH 7.5), 5% glycerol

B1: CYT-18* (Neurospora crassa mitochondrial tyrosyl-tRNA synthetase lacking the mitochondrial targeting sequence and most of the C-tail) (enzyme)
chain: MLRREFGPKYTAKINEAEENWQARAEAIKKGKKQNTWDLFEERGYVKDTAGTKEHIAELMRTRRIGAYVGIDPTAPSLHVGHLLPLMPLFWMYLEGYKAFTLIGGSTAKIGDPTGRLKSRDHLSSSDATMNMTKIHYQLKKLWENVDTQMRARGYEADWARKRGIVNNNHWWNKQPMLEVLRRVGHALRIGPMLSRDTVKNKMTQGDGVSFAEFTYPIMQGWDWFELFYQQGVQMQIGGSDQYGNIISGLEVVKAARESEPDPQERKYVTPKTALDECVGFTVPLLTDSSGAKFGKSAGNAIWLDPYQTSVFDFYGYFVRRSDQEVENLLKLFTFMPISEITKTMEEHIKDPSKRVAQHTLAREVVTLVHGKQEASAAEDQHRMMYTGQMTIPQVSRAKDAATGGDQYKTISDQPVTLNNAPRIDMILPESLIMGKSIGRILYAAGLASSTTEGHKLAAAQGCYVGGAHRAGGENVTMNPDLISFMPVKLWFPGETQRYLINGNLLILRKGKHNVRVIQMVSDVEYAASGQTYPGQSFTGAVRKLNEIMKNL
notes: extra N-terminal methionine of the expression construct; stop codons introduced after Leu583; Derived from pEX560 (wild-type CYT-18, amino acids 33-669); also called CYT18/ΔC-tail; N. crassa mtTyrRS
- stoichiometry N: 2

From PMC4275181, “Evolution of RNA-Protein Interactions: Non-Specific Binding Led to RNA Splicing Activity of Fungal Mitochondrial Tyrosyl-tRNA Synthetases” (PLoS Biology, 2014)
